From patent US20100035280A1 (Chugai, published 2010)
One block for each binder: values may come before it.

What was measured:
[1] = biological target: T1, human desmoglein 3 (DSG3) (human, UniProt P32926 50-999); test: flow cytometry, FITC anti-mouse IgG secondary antibody
T1 construct: Full-length DSG3 gene stably expressed on CHO DG44 cells (DSG3-DG44) for flow cytometry; also called DSG3-DG44 cells; DSG3-Ba/F3 cells
T1 sequence: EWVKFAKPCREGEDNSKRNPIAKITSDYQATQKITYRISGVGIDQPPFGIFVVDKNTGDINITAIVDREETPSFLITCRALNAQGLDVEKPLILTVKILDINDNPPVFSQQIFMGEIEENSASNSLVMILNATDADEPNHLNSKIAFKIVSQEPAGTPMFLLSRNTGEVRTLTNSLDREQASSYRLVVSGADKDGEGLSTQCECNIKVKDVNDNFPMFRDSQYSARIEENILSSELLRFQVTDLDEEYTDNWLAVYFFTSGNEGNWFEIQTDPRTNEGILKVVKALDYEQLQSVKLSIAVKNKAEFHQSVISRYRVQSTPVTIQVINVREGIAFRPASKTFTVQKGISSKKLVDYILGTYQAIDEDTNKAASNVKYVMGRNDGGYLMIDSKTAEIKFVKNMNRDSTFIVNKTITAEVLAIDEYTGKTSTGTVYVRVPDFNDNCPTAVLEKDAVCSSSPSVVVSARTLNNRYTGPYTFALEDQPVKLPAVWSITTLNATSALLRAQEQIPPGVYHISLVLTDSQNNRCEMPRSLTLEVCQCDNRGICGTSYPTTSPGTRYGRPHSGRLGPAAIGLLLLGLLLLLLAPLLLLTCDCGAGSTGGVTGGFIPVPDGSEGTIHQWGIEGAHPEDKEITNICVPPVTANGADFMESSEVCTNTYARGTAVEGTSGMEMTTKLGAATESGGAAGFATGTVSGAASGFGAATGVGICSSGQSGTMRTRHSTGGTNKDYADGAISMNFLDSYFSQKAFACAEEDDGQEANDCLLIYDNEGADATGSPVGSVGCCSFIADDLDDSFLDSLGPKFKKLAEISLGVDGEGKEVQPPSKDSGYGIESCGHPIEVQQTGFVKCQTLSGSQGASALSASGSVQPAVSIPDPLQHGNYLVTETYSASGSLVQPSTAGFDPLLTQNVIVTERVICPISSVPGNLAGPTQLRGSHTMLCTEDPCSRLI
Protocol: (§1) Binding of the DF366c antibody to DSG3-DG44 cells and DG44 cells was detected by flow cytometry. 3×10⁴ cells were reacted with 10 μg/mL of DF366c antibody on ice for one hour, and then washed. Then, this was reacted with an FITC-labeled anti-human IgG antibody (Beckman Coulter) as the secondary antibody on ice for one hour, washed, and then subjected to flow cytometry. FACS Calibur (Becton Dickinson) was used as the flow cytometer. DF366c antibody bound to DSG3-DG44 cells, but not to the parental DG44 cells. Therefore, the DF366c antibody was confirmed to bind specifically to DSG3.
The pMCD/G2a-DF366 and pMCN/k-DF366 plasmids were introduced into DG44 cells by electroporation. The CHO DF366m-DG44 cells, which stably express the mouse IgG2a chimeric DF366 antibody (DF366m) were established by selection in a nucleic acid (HT supplement)-free medium containing 500 μg/mL of Geneticin. Subsequently, the DF366m antibody was purified from the culture supernatant of DF366m-DG44 using a Hi Trap Protein G HP column. The solvent was substituted with PBS using a PD-10 column. The concentration of the DF366m antibody purified was quantified using a DC Protein Assay kit. The DF366m antibody was subjected to flow cytometric analysis to confirm that the antibody specifically binds to DSG3 in the same way as the DF366c antibody. […]

[2] = biological target: T1, human desmoglein 3 (DSG3); test: flow cytometry screening on DSG3-DG44 cells
Protocol: Binding of the DF366 antibody to DSG3-DG44 cells was detected by flow cytometry. 5×10⁴ cells of DSG3-DG44 was reacted with 3 μg/mL of DF366 antibody on ice for 30 minutes, and then washed. Then, this was reacted with an FITC-labeled anti-mouse IgG antibody (Beckman Coulter) as the secondary antibody on ice for 30 minutes, washed, and then subjected to flow cytometry. FACS Calibur (Becton Dickinson) was used as the flow cytometer. The DF366 antibody bound to DSG3-DG44 cells, but not to the parental DG44 cells. Therefore, the DF366 antibody was confirmed to bind specifically to DSG3.

[3] = biological target: T1, human desmoglein 3 (DSG3); test: flow cytometry, 10 µg/mL antibody on DSG3-DG44 CHO cells
Protocol: as §1

binding result [1]: binds
B1: mouse IgG2a chimeric DF366 antibody (DF366m) (antibody)
heavy: EVQLQQSGPELVKPGASVKISCKASGYTFTDYNMDWVKQSHGESLEWIGYIYPNNGGSGYNQKFKSKATLTVDKSSSTAYMELHSLTSEDSAVYYCARRDSYYGFDMAWFAYWGQGTLVTVSAAKTTAPSVYPLAPVCGDTTGSSVTLGCLVKGYFPEPVTLTWNSGSLSSGVHTFPAVLQSDLYTLSSSVTVTSSTWPSQSITCNVAHPASSTKVDKKIEPRGPTIKPCPPCKCPAPNLLGGPSVFIFPPKIKDVLMISLSPIVTCVVVDVSEDDPDVQISWFVNNVEVHTAQTQTHREDYNSTLRVVSALPIQHQDWMSGKEFKCKVNNKDLPAPIERTISKPKGSVRAPQVYVLPPPEEEMTKKQVTLTCMVTDFMPEDIYVEWTNNGKTELNYKNTEPVLDSDGSYFMYSKLRVEKKNWVERNSYSCSVVHEGLHNHHTTKSFSRTPGK
light: DIQMTQSPASLSASVGETVTITCRPSENIYNNLAWYQQKQGKSPQLLVYVATNLAEGVPSRFSGSGSGTRFSLKINSLQPEDFGKYYCQHSYGTPWTFGGGTKLEIKRADAAPTVSIFPPSSEQLTSGGASVVCFLNNFYPKDINVKWKIDGSERQNGVLNSWTDQDSKDSTYSMSSTLTLTKDEYERHNSYTCEATHKTSTSPIVKSFNRNEC
notes: DF366 variable regions on mouse IgG2a/kappa constant regions, made in CHO DG44 cells; The full-length entries may include a signal peptide; also called DF366m antibody

binding result [2]: binds
B2: DF366 antibody (antibody, V domains shown)
VH: EVQLQQSGPELVKPGASVKISCKASGYTFTDYNMDWVKQSHGESLEWIGYIYPNNGGSGYNQKFKSKATLTVDKSSSTAYMELHSLTSEDSAVYYCARRDSYYGFDMAWFAYWGQGTLVTVSA
VL: DIQMTQSPASLSASVGETVTITCRPSENIYNNLAWYQQKQGKSPQLLVYVATNLAEGVPSRFSGSGSGTRFSLKINSLQPEDFGKYYCQHSYGTPWTFGGGTKLEIK
notes: Mouse monoclonal antibody purified from hybridoma supernatant; also called anti-DSG3 antibody; anti-human desmoglein 3 antibody

binding result [3]: binds
B3: human IgG1 chimeric DF366 antibody (DF366c) (antibody)
heavy: not shown
light: DIQMTQSPASLSASVGETVTITCRPSENIYNNLAWYQQKQGKSPQLLVYVATNLAEGVPSRFSGSGSGTRFSLKINSLQPEDFGKYYCQHSYGTPWTFGGGTKLEIKRTVAAPSVFIFPPSDEQLKSGTASVVCLLNNFYPREAKVQWKVDNALQSGNSQESVTEQDSKDSTYSLSSTLTLSKADYEKHKVYACEVTHQGLSSPVTKSFNRGEC
notes: Mouse DF366 variable regions on human IgG1/kappa constant regions, made in CHO DG44 cells; The full-length entries may include a signal peptide; also called DF366c antibody
